Assay: yeast display, Sf9 membrane polyspecificity reagent, FACS + sequencing; frameworks hold sequencing errors
Outline: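 Sorting gates, low and high (top ~1%), were placed on anti-HA fluorescence to track expression and on streptavidin fluorescence to track reagent binding. A clone's polyreactivity label is taken from the gate it came out of. The reagent was 10% biotinylated, detergent-solubilized Sf9 membrane, applied for 1 hour at 4 °C to galactose-induced yeast display cells.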

Sequence | polyreactivity (PSR sort gate)
EEELVESGGGLVQAGGSLRLSCAASGSTFVSNAMGWYRQAPGKERELVAAISSSGGSTYYADSVKGRFTISRDNAKNTVYLQMNSLKPEDTAVYYCVDYYIGYTHNYNYWGQGTQVTVSS | low polyreactivity
EEELVESGGGLVQAGGSLRLSCSASGSTFLVYSMGWYRQAPGKERELVAVITNSTVRTYYADSVKGRFTISRDNAKNTVYLQMDRLKPEDTAVYYCNADKEFAVLGQGMDYWGQGTQVTVSS | low polyreactivity
EVQLVESGGGLVQAGGSLRLSCAASVSTFGSNAMGWYRQAPGKERELVAAITNGGSTNYADSVKGRFTISRDNEKNTVYLQMNSLKPEDTAVYYCNAVQSAYNKFWIALWGGYWGQGTQVTVSS | low polyreactivity
HAQLQESGGGLVQAGGSLRRSCAASGSIFRFSGMGWYRLAPGKERELVASIGFGSITYYADRVNGRFTISRDNANNTVYLQMNSLKPEDTAVYYCAVQVQDESWLDYWGQGTQVTVSC | low polyreactivity
HAQLQESGVGLVQAGGSLRRSCAASGSIFRFSGMGWYRRATGKERELVASIGFGSITYYADRVKVRFTISRDNANNTVYLQMTSLKPEDTAVYYCAVQVQDESWLDYWGQGTQVTVSC | low polyreactivity
HVKLVDSGGGLVKAGGSLRLTCAASGITIYTNDMGWSRQARGKERELVAAITTNDGDTYYADSVKGRFTISRDNEKNTVYLQMNSLKPEDNAVYYCAADSGSTSEYEYWGQGTQVTVSS | low polyreactivity
HVQHVESGGGLVQAGGSLRLSCAASGRTFGYYALGWYRQAPGKERELVARISTRGGSTNYADSVKGRFTISRDNAKNTVFLQMNSLKPEDTAVYSCYARGGYGGGYDYWVQGTQVTVSS | high polyreactivity
HVQIVESGRGLVPAGGSLRLSCAASGFIFIRYSMGWSRQAPGKERELVAVISSGGGSTDYADSVKGRFTISRDYAKNTVFLQMISLKPEDTAVYYCAADFLPTYDPYYFWGQGTQVSVSS | low polyreactivity
HVQLEESGGGLVQAGGSLRLSCAASGRIFYPYAMGWYRQAPGKERELVAAISRSGGSTYYADSVKGRFTISRDNAKNTVYLQMNSLKPEDTAVYYCATGFYRAISHHGYDYWGQGTQVTVSS | low polyreactivity
HVQLGESGGGLVQAGGSLRLSCAASGRISVFYTMGGYRQAPGKEREMVAVIRTSGGRTNYADSVKGRFTISRDNAKNTVYLQMNSLKPEDTAVYYCAARVVRYGYKYYYWGQGTQVTVSS | low polyreactivity
HVQLLESGGGLVQAGGSLRLSCAASGSTFVYYAMGWYRQAPGKERELVAVITRGGRTYYADSVKGRFTISRDNAKTTVYLQMNSVKPEDSEVYYCNKVTPIYHDTVLDYWGQGTQVTVSS | high polyreactivity
HVQLQESGGGLVQAGGSLRLSCAASGNISYSRNMGWYRQAQGKERELVAAIDRGAITYYADSVKGRFTISRDNAKNTVDLQIYSLNPEDTAVYYCAAEYHDRWDHRYWGQGTQVTVSS | high polyreactivity
HVQLQESGGGLVQAGGSLRLSCAASGSIFQATYMGWYRQAPGKEREFVASITNGSITNYADSVKGRFTIGRDNEKDTLYLQMNSLKPEDSAVYYCAVDRQYIPAFHYWGQGTQVTVSS | low polyreactivity
HVQLQESGGGLVQAGGSLRLSCAASGSIFQATYMGWYRQAPGKEREFVASITYGSITNYADSVKGRFTIGRDNAKDTLYLQMNSLKPEDTAVYYCAVDRHYIPDFHYWGQGTQVTVSS | low polyreactivity
HVQLQESGGGLVQAGGSLRLSCAASGSIYQATYMGWYRQAPGKEREFVASITYGSITNYADSVKGRFTIGRDNANDTLYLQMNSLKPEDTAVYYCSVDRHYYWGQGTQVTVST | low polyreactivity
HVQLQESGGGLVQAGVSLRLSCAASGNISYSRNMGWYRQAPGKERELVAAIDRGAITYYADSVKGRFTISRDNAKNTVYLQIYSLKPEDTAVYYCAAEYHDRWDHRYWGQGTQVTVSS | high polyreactivity
HVQLQESGGGLVQEGGSLRLSCAASGSIFQATYMGWYRQAPGKELEFVASITYGSITNYADSVKGSFTIGRDNAKDTLYLQMNSLKPEDTAVYYCAVDRHYIPDFHYWGQGTQVTVSS | low polyreactivity
HVQLQESGGGMVQASGSPRLSCPASGNIFDADIMGWYRQAPGKQCELVASITDGGSTNYADSEKGRFTISSDNAKNTVYLQMNSLKPEDTAVYYCAAIAYPDIPTYFDYDSDYFYWGQGTHVTVSS | high polyreactivity
HVQLVDSGGVLVQAGGSLRLSCAASGSIYDANAMGRYRQAPGKERELVAAISSSGGITYYADSVKGRFTISRDNAKNTVYLQMNSLKPEDTAVYYCVAEYGYIDYSYLFWSDYWGQGTQVTVSS | high polyreactivity
HVQLVESAGGLVQAGGRLSLSCAAYGSICDRYAMGWYRQAPGKEREKVAAIYSSGGRTYYADSVKGRFTISRDNAKNTVYLQMKSLKPEDTAVYYCNAEFWGGTPVAFSADYEYWGQGTQVTVSS | high polyreactivity
HVQLVESGGGLVQAGASLRLSCAASGSTFSTYGMGCSRQAPGKVRELVADISDSTGSTYYADSVKGRFTISRDNAKYTVYLQMNSLKPEDNAVYYCAADSGEPSWGYDYWGQGTQVTVSS | low polyreactivity
HVQLVESGGGLVQAGGCLRLSCAASGIIFLYNAMGWYRQAPGKERELVATITWSGGSTYYADSVKGRFTISRDNAKITVYLQMKSLKPEDTAVYYCAADYYYGYEFGYWGQGTQVTVSS | low polyreactivity

Sequence | polyreactivity (PSR sort gate)
HVQLVESGGGLVQAGGSLRISCAASGRIFGRNAMGWYRQAPGTERELVATISGGGSTYYADSVKGRFTISRDNAKNTVYFQMNSLKPEDTAVFYCAVGHRWWGAYAGYDYWGQGTQVTVSS | low polyreactivity
HVQLVESGGGLVQAGGSLRISCAASGRTFYKNAKGRYRQAPGKEREFVASISVSGGRTYYADSVKGRFTISRDNAKNTVYLQMNILNPEDSAVYYCNARASPLSQRDYWGQGTQVTVSS | low polyreactivity
HVQLVESGGGLVQAGGSLRLICGASGFTFPNYAMGGYRHAPGKERELVAAITSGGGRTNYADSVKGRFTISRDNAKITVYLQMNSLKPADTAVYYCNAEKTYLGSRYRPYNYWGQGTQVTVSS | low polyreactivity
HVQLVESGGGLVQAGGSLRLSCAASGFMFSGYAMGWYRQAPGKVRELVAAITWSGSNTFYADSVKGRFTISRDNAKNTVYLQRNSLKPEDTAVYYCNAVSKYKRSDYYYWGQGTQVTVSS | high polyreactivity
HVQLVESGGGLVQAGGSLRLSCAASGFTIKYYGMGWYRQAPGKERELVAAISRRGGSTYYADSVKGRFTISRDNAKNTVYLQMNSLKPEDTAVYYCNAQFARSSGFNYWGQGTQVTVSS | high polyreactivity
HVQLVESGGGLVQAGGSLRLSCAASGINFSWYPMGWYRQAPGKERELVAAISSSGGTTFYADSVKGRFTISRDKAKNTVYLQMNSLKPEDTAVYYCAVVGPPYYTWRVWRPAYDYWGQVTQVTVSS | high polyreactivity
HVQLVESGGGLVQAGGSLRLSCAASGLNFLYYGMGWYRQAPGKERELVAAISSGGGTYYADSVKGRFTISRDNAKNTVYLQMNSLKPEDTAVYYCAVDPQWTYWSTYRYDYWGQGTQVTVSS | low polyreactivity
HVQLVESGGGLVQAGGSLRLSCAASGRIFKYYAMGWYRQAPGKERELLAAITYSGGSTNYADSVKGRFTISRDNAKNTVYLQMKSLKPEDTAVYYCNAYSYRNFLSHYNYWGQGTQVTVSS | high polyreactivity
HVQLVESGGGLVQAGGSLRLSCAASGRIFPGNVMGWYRHAPGKERELVAGIDSSGGSTSYADSVKGRFTISRDNAKNSVYLQMNSLKPEDTAVYYCAKVRDQARYQWGYQEFDYWGEGTQVTVSS | low polyreactivity
HVQLVESGGGLVQAGGSLRLSCAASGRIFTLYDMGWYRQAPGKERELVAAISNSAGSTYYADSVKGRFTISRDNAKNTVYLQMNSLKPEDTAVYYCAAELWSWGGARDYWGQGTQVTVSS | high polyreactivity
HVQLVESGGGLVQAGGSLRLSCAASGRTFARYAMGWYRQAPGKERELVAAITRGGRTNYADSVKGRFTSSRDNAKNTVYLQMNSLKPEDTAVYYCNAYFVNPYDYWGQGTQVTVSS | high polyreactivity
HVQLVESGGGLVQAGGSLRLSCAASGRTFGAYTMGWYRQAPGKERELVAAINWSGGDTYYAYSVKGRFTISRDNAKNTVYLQMNSQKPEDTAVYYCNAEPRYGTYDYWGQGTQVTVSS | low polyreactivity
HVQLVESGGGLVQAGGSLRLSCAASGRTFTYNTMGVYRKEPGKERELVAAISSSGGSTYYADSVKGRFTISRDNAKNTVYLQMNSLKPEDTAVYYCAKRYFSSSRYYYWGQGTQVTVSS | high polyreactivity
HVQLVESGGGLVQAGGSLRLSCAASGRTFYIYAMGWYRKAPGKERELVAAITWSGGTTYYADSVKGRFTISRDNAKNPVYLQMTSLKPEDTAVYYCAADSYGFYLESYYWGQGTQVTVSS | low polyreactivity
HVQLVESGGGLVQAGGSLRLSCAASGRTLYRNAMGWYRQAPGKERELVARITWSGASTYYADYVKGRFTISRDNAKNTVYLQMNSLKPEVTAVYYCAAQYLSRRYGPYYTYNYWGLGTQVTVSS | high polyreactivity
HVQLVESGGGLVQAGGSLRLSCAASGSIFDYNAIGWYRQAPGKERELVASSSGDSGSTYYADSVKWRFTISRDYAKNTVYLQMNSLKPEDTAVYYCAAPYVSWDYRYYYWGQGTQVTVSS | low polyreactivity
HVQLVESGGGLVQAGGSLRLSCAASGSIFESNAMGWYRQAPGKERELVAAYADSVKGRFTISRDNAKNTVYVQMNSLKPEETAVYYCAARIGTGVLPGRGANSHMDYWGQGTQVTVSS | low polyreactivity
HVQLVESGGGLVQAGGSLRLSCAASGSIFYYNVMGWYRQAPGKERELVAAIDIDGSTYYADSVKGRFTISRDNAKNTVYLQMNSMKPEDTAVYYCNAQAPYWFSFYYDHKYDYWGQGTQVTVSS | low polyreactivity
HVQLVESGGGLVQAGGSLRLSCAASGSNFDKYAMGGYRQAPGKERELGAAISRGGSSTYYADSVKGRFTISRDNAKNTVYLQMNSLKPEDTAVYYCAARIRNWPAMDYWGQGTQVTVSS | high polyreactivity
HVQLVESGGGLVQAGGSLRLSCAASGSTFGYNARGWYRQAPGKERELVAVITDSGGSTKYADSVKGRFTISRDNAKKTVYLQMNSLKPEDTAVYYCAKRSSQTRRAYDYWGQGTQVTVSS | low polyreactivity
HVQLVESGGGLVQAGGSLRLSCAASGSTFILNTMGWYIQAPGKERKLVAAITRRGSSTYYADSVKGRFTISRDNAKNTGYLQMNSLKPEDTAVYFCAAFSYNLGMDYWGQGTKVTVSS | high polyreactivity

Source: the nanobody polyreactivity screen of Harvey et al. (2022)
